Results published in the supplement of paper PMC9732359.
± gives the uncertainty stated by the source.

Assay: protein stability index of a GFP-peptide fusion (yeast GPS) (PSI 1-4); higher = more stable; sorted into four equal gates, so the index is relative within each strain
How it was run: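 Yeast carrying a pooled library were grown to mid-log phase in leucine-free medium. Each library plasmid expresses Cherry and has a tiled 17-residue yeast protein peptide fused downstream of GFP. Cells were sorted into four equal gates by GFP/Cherry ratio, and plasmids from each gate were PCR-amplified, Illumina-sequenced and assigned to strains by barcode. Summing, across gates, the read frequency times the gate number gave each peptide's protein stability index.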

Sequence	protein stability index (doa10∆)	protein stability index (pdr5∆)	protein stability index (san1∆)	protein stability index (ubr1∆)
VDSRNETDHKTNENGET [SRB4]	3.26 ± 0.16	2.75 ± 0.18	2.77 ± 0.098	3.27 ± 0.19
VDSWDREFLKVDQEMLY [SKP1]	3.43 ± 0.12	3.29 ± 0.078	3.21 ± 0.1	3.26 ± 0.086
VDTSTELESMLEDLKNT [RRP6]	3.56 ± 0.24	3.03 ± 0.14	3.46 ± 0.11	3.13 ± 0.054
VEEKPGDRGALARASGN [RPL2A]	2.95 ± 0.12	3.23 ± 0.13	3.37 ± 0.092	3.13 ± 0.11
VEELPTFHDYDMVKLDI [RRP42]	2.51 ± 0.055	2.75 ± 0.063	2.87 ± 0.045	3.13 ± 0.033
VEFKLPKELVPSHEKLK [CDC53]	2.37 ± 0.054	2.24 ± 0.045	2.24 ± 0.071	2.08 ± 0.045
VEITFGKEFGDVSVKMG [RRP45]	1.38 ± 0.073	1.68 ± 0.083	1.32 ± 0.19	1.79 ± 0.12
VEKTEKPKKPKGRAYKR [RPS30A]	3.16 ± 0.098	3.24 ± 0.091	3.07 ± 0.06	3.05 ± 0.07
VEMAWIMGFISYHNGNL [FAS2]	2.67 ± 0.14	3.2 ± 0.1	3.29 ± 0.063	3.06 ± 0.12
VEPVTERTKLQEHTIFT [SNU114]	2.2 ± 0.2	2.35 ± 0.074	1.8 ± 0.21	
VEQTAEVTIEDALKVVL [RPS12]	3.34 ± 0.079	3.36 ± 0.078	3.19 ± 0.049	3.21 ± 0.045
VETNTTVLADEFIAHRL [RPB3]	3.05 ± 0.058	3.18 ± 0.054	3.19 ± 0.04	3.22 ± 0.033
VEVDITLSPNVTDSSLL [GRR1]	2.83 ± 0.074	2.43 ± 0.068	2.99 ± 0.053	2.82 ± 0.046
VFALHKYKPTPLYVMDE [SMC4]	2.6 ± 0.081	2.85 ± 0.12	3.09 ± 0.076	3.07 ± 0.056
VFEISENNSDSNSNNNG [SWI1]	2.89 ± 0.15	3.03 ± 0.11	3.15 ± 0.12	3.28 ± 0.15
VFERFKTKILEVAIRDV [IRR1]	1.77 ± 0.081	1.75 ± 0.09	1.43 ± 0.14	1.67 ± 0.072
VFESLEINNLIQLPASL [ARP9]	1.61 ± 0.08	1.88 ± 0.05	1.83 ± 0.077	1.6 ± 0.055
VFLEFSLNFIPITASTS [YML103C/NUP188]	1.27 ± 0.068	1.34 ± 0.049	1.62 ± 0.097	1.48 ± 0.038
VFLYFEDNAGVIANPKG [RPL23A]	2.43 ± 0.11	1.96 ± 0.051	2.27 ± 0.12	1.9 ± 0.047
VFSHAQTAVTCESCSTV [RPS27B]	1.57 ± 0.13	2.46 ± 0.14	2.24 ± 0.15	2.04 ± 0.11
VFYAPNVKNYSTTQEIL [RPC34]	2.4 ± 0.1	1.97 ± 0.071	3.02 ± 0.082	2.06 ± 0.048
VFYRGMTMQVAVPRDEL [FAS1]	1.62 ± 0.056	1.86 ± 0.066	2 ± 0.072	1.97 ± 0.12
VGFLVQLDLTGIFLHGK [PRP8]	2.17 ± 0.074	1.85 ± 0.05	2.33 ± 0.058	2.39 ± 0.067
VGGTTSISGFKEALLGQ [ARP9]	2.67 ± 0.087	2.53 ± 0.053	2.51 ± 0.048	2.81 ± 0.039
VGRLWDQTFPINCNKET [ECM29]	3.03 ± 0.14	2.87 ± 0.12	3.07 ± 0.11	3.09 ± 0.1
VGSENVECTISILRKSS [SNF12]	1.89 ± 0.042	2.23 ± 0.044	2.43 ± 0.044	2.11 ± 0.036
VHLSNGYKMIPGAKPLQ [FAS1]	1.74 ± 0.072	2.02 ± 0.076	1.8 ± 0.088	1.81 ± 0.05
